Source: patent publication US20170204150A1 (Stanford University, published 2017)

Key:
VEGFR2-Fc [1] = molecular target: T1, VEGFR2-Fc (UniProt P35968 20-764, limits assumed); test: yeast surface display, titration with soluble VEGFR2-Fc, % maximum VEGFR2-Fc bound
T1 construct: Neither the source nor the limits of the VEGFR2-Fc construct are stated; also called VEGFR2 receptor; not shown: Fc part

[2] = molecular target: T2, prostate specific membrane antigen (PSMA) (UniProt Q04609 44-750, limits assumed); test: yeast surface display, titration with soluble PSMA, PSMA bound in arbitrary fluorescence
T2 construct: also called folate hydrolase I

VEGFR2-Fc [3] = molecular target: T1, VEGFR2-Fc; test: soluble protein binding to VEGFR2-Fc, Octet platform (lower table; taken as the soluble-form table from legend paragraph 18 and paragraph 153)
Excerpt: The Octet® platform was used to measure the soluble affinity of the variants to VEGFR2-Fc and their respective target proteins. As with the results on the yeast surface, the variants' affinities to VEGFR2-Fc were similar to each other and to scVEGFmut.

[4] = molecular target: T2, prostate specific membrane antigen …; test: yeast surface display: VEGFR2/PSMA displayed on the yeast cell surface, titrated with soluble PSMA (upper table; taken as the yeast-display table from legend paragraph 18)
VEGFR2-Fc [5] = molecular target: T1, VEGFR2-Fc; test: yeast surface display: VEGFR2/PSMA displayed on the yeast cell surface, titrated with soluble VEGFR2-Fc (upper table; taken as the yeast-display table from legend paragraph 18)
VEGFR2-Fc [6] = molecular target: T1, VEGFR2-Fc; test: yeast surface display: scVEGFmut displayed on the yeast cell surface, titrated with soluble VEGFR2-Fc (upper table; taken as the yeast-display table from legend paragraph 18)

T1 sequence (P35968 20-764 limits assumed): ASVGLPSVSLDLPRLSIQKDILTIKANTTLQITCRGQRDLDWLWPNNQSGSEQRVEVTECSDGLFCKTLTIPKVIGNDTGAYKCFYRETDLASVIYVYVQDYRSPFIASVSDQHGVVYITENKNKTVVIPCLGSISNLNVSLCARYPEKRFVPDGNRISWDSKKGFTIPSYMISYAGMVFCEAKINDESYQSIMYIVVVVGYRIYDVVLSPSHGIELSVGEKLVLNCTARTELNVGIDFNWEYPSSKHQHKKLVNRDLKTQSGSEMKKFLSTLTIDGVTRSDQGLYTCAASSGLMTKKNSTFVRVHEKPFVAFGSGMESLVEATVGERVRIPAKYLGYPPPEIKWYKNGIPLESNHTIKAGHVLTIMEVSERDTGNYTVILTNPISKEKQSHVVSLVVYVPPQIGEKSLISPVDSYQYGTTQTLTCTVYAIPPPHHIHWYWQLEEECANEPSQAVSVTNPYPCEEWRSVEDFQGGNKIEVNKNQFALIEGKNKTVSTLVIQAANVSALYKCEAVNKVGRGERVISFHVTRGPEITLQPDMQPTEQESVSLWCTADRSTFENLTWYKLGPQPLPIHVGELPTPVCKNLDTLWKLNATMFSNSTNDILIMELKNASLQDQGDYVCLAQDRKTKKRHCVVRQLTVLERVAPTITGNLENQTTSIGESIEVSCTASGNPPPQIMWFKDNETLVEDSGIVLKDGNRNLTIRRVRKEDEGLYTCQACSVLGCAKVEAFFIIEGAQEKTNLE
T2 sequence (Q04609 44-750 limits assumed): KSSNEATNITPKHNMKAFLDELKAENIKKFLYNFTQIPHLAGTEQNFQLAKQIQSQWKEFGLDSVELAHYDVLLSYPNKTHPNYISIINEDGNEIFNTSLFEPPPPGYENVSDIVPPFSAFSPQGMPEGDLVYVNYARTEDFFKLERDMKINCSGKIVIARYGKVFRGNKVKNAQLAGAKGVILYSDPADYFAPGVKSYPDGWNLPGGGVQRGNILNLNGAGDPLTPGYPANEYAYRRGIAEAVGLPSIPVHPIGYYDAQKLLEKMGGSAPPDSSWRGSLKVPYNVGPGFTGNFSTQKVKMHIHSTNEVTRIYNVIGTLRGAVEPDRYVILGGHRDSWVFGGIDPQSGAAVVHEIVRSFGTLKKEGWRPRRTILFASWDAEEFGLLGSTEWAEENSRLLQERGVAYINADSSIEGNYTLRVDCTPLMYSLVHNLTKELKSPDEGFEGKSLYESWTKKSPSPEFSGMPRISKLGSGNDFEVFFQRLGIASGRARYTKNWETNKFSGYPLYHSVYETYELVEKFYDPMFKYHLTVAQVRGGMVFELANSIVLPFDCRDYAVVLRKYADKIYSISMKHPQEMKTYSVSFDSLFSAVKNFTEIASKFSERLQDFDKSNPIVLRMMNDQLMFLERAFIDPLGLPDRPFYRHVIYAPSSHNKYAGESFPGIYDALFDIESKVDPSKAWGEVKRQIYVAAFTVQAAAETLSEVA

Row | Binder | EC50 (read off the curve) (VEGFR2-Fc [1]) | EC50 (read off the curve) [2] | Kd (VEGFR2-Fc [3]) | Kd [4] | Kd (VEGFR2-Fc [5]) | Kd (VEGFR2-Fc [6])
1 | VEGFR2/PSMA protein (designed binder) EVVKAMDVYQRSYCHPIETLVDIFQEYPDEIEYIFKPSCVPLMRCGGCCNDAGLECVPTEESNITMQIMRIKPHQGQHIGEMSFLQHNKCECRPKKDGGGGSGGGGSGGGGSGGGGSEVVKFMDVYQRSYCHPIETLVDIFQEYPSIASWNPWMAFKPSCVPLMRCGGCCNDEGLECVPTEESNITMQIMRNRLFRYLPVRHIGEMSFLQHNKCECRPKKD | ~4 nM | ~40 nM | 13 nM | 58 nM | 4.6 nM | –
2 | scVEGFmut (ligand, also called single-chain antagonist mutant VEGF; scaffold protein) APMAEGGGQNHHEVVKAMDVYQRSYCHPIETLVDIFQEYPDEIEYIFKPSCVPLMRCGGCCNDAGLECVPTEESNITMQIMRIKPHQGQHIGEMSFLQHNKCECRPKKDRARQEKCDKPRRGGGGSGGGGSGGGGSGGGGSAPMAEGGGQNHHEVVKFMDVYQRSYCHPIETLVDIFQEYPDEIEYAFKPSCVPLMRCGGCCNDEGLECVPTEESNITMQIMRAKPHQGQHIGEMSFLQHNKCECRPKKDRARQEKCDKPRR | ~6 nM | – | 13 nM | – | – | 6 nM
